Assay results reported in the Human Domainome abundance scans (Beltran et al. 2025).

B1: Cyclin-F, residues 28 to 80; numbered along this chain, P41002 (parent)
chain: RNLTILSLPEDVLFHILKWLSVEDILAVRAVHSQLKDLVDNHASVWACASFQE

Variants of: B1
Test: abundance fitness (aPCA) (normalised: wild type 0, dead -1); higher = more abundant; growth selection in yeast, the domain comes from the species named
Conditions: Homo sapiens

Abundance fitness, by site and new letter:
V12: R -0.909 | L -0.281 | D -0.816 | K -1.07 | P -0.733 | G -0.764 | C -0.343 | Y -0.846 | M -0.924 | W -0.851 | T -0.493 | N -1.02 | I 0.033 | A -0.816 | H -0.732 | Q -0.747 | S -0.85 | F -1.02
E23: N -0.319 | W -0.577 | M -0.802 | P -0.236 | H -0.358 | K -0.105 | L -0.856 | S -0.186 | D 0.057 | T -0.477 | A -0.053 | V -0.372 | C -0.627 | R -0.001 | Y -0.62 | G -0.48
A27: H -0.259 | K -0.175 | P -0.44 | T 0.087 | Y -0.876 | G -0.787 | V -0.238 | I -0.285 | Q -0.089 | W -0.622 | R -0.047 | F -0.945 | E -0.715 | C -0.091 | M -0.273
F14: T 0.061 | L 0.179 | R 0.056 | W 0.347 | G -0.293 | P -0.954 | M 0.181 | Y -0.153 | Q -0.08 | H -0.324 | D -0.762 | C -0.162 | K 0.226 | S -0.158 | E -0.074 | V 0.198 | A 0.132
S21: H -0.334 | C -0.311 | A -0.113 | W -0.824 | F -0.731 | M -0.815 | E -0.092 | I -0.405 | R -0.157 | G -0.226 | N -0.148 | Q -0.473 | K -0.272 | D 0.135 | P -0.047 | L -0.855 | Y -0.566 | V -0.621 | T -0.126
I16: M -0.32 | P -0.673 | L -0.646 | G -0.701 | W -0.823 | C -0.341 | R -0.501 | A -0.901 | T -0.805 | K -1.11 | N -1.04 | E -0.773 | Y -0.641 | H -1.02 | S -0.664
V28: F -0.396 | W -0.705 | H -0.372 | N -1.09 | L 0.168 | E -0.82 | D -0.885 | A -0.774 | P -0.88 | S -0.823 | C -0.173 | G -0.759 | I -0.184 | M 0.036 | T -0.615 | Q -0.716 | K -0.71 | R -0.833
L20: I -0.673 | K -0.838 | D -0.675 | Y -0.75 | W -0.747 | C -0.42 | P -0.893 | N -0.759 | A -0.667 | S -0.705 | G -0.605 | H -0.812 | Q -0.893 | V -0.484 | F -1.01 | R -0.853 | E -0.982 | T -0.923
L13: Y -0.306 | R -0.633 | W -0.204 | F 0.091 | E -0.81 | T -0.001 | M -0.138 | Q -0.093 | D -0.644 | K -0.431 | V -0.141 | S -0.67 | C -0.933 | G -0.692
I25: H -0.82 | A -0.602 | V -0.292 | D -0.83 | C -0.527 | T -0.703 | K -0.568 | R -0.534 | E -0.809 | P -0.806 | S -0.783 | M -0.346 | L -0.33 | G -1.08 | Y -0.971 | W -0.41 | N -1.14
D24: S -0.882 | F -1.06 | V -0.784 | R -0.797 | Q -0.739 | G -0.624 | Y -0.544 | H -0.708 | T -0.68 | P -0.661 | I -0.684 | N -1.11 | L -0.718 | E -0.388 | W -0.717 | M -0.595 | C -0.716 | K -0.832 | A -0.631
L17: D -0.868 | H -0.678 | S -0.896 | V -0.169 | G -0.547 | A -0.781 | E -1.06 | F 0.056 | N -0.926 | C -0.223 | Q -0.782 | I 0.148 | T -0.63 | R -0.774
A30: L 0.377 | I -0.264 | K -0.339 | M 0.188 | T -0.04 | S 0.111 | C 0.089 | N -0.356 | P -0.844 | F -0.62 | R 0.053 | Q -0.031
W19: M 0.33 | Y 0.397 | E 0.227 | L 0.293 | P -0.458 | G -0.273 | D -0.137 | S -0.057 | R -0.154 | H 0.257 | K 0.218 | C 0.229 | T -0.269 | N 0.223 | V -0.226
E10: V -0.524 | R -0.054 | W -0.737 | S -0.233 | T -0.35 | Y -0.505
K18: L -0.553 | M -0.251 | G -0.132 | Q -0.081 | E -0.148 | F -0.573 | T -0.254 | H -0.122 | D -0.483 | S -0.215 | I -0.449 | Y -0.505 | P -0.72 | V -0.452 | A -0.314 | R -0.14 | C -0.597 | N -0.107
D11: I -0.43 | S 0.093 | M -0.488 | G -0.104 | N 0.046 | P -0.132 | Y -0.556 | A 0.028 | R -0.099 | E -0.153 | F -0.823 | H -0.384 | W -0.731 | Q -0.049 | C -0.18 | K 0.269 | V -0.269
L26: G -0.451 | Y -0.386 | T -0.396 | M -0.183 | Q -0.147 | F -0.424 | R -0.169 | P -0.694 | E -0.5 | C -0.256 | I -0.023 | V -0.452 | A -0.283 | S -0.5 | D -0.961 | K -0.043
H15: N 0.226 | E -0.222 | W -0.561 | T -0.455 | Y -0.388 | L -0.204 | I -0.21 | C -0.091 | K 0.216 | P -0.731 | F -0.499 | D -0.408 | R 0.222 | M -0.116 | S -0.235 | Q -0.356 | V -0.55 | A -0.279
V22: K -0.132 | G -0.553 | C -0.286 | A -0.142 | H -0.122 | Q -0.267 | E -0.285 | W -0.087 | F -0.141 | D -0.405 | T -0.168 | R -0.177 | S -0.452 | Y 0.02 | I 0.005
R29: V -0.541 | M -0.541 | P -0.716 | H -0.65 | N -0.955 | L -0.833 | W -0.814 | T -0.909 | Y -0.713 | E -0.863 | A -0.827 | G -0.795 | Q -0.801 | F -0.574 | I -0.793 | C -0.635 | S -0.655
